Measured values reported in patent US20230416343A1.
Where two headings read alike, the source gives them in different places.

Experiments:
[1] = biological target: SARS-CoV-2 variant spike protein del 69-79 plus N501Y on HEK293 cells (SARS-CoV-2) (UniProt P0DTC2)
[2] = biological target: SARS-CoV-2 variant spike protein del 69-79 plus N439K on HEK293 cells (SARS-CoV-2) (UniProt P0DTC2)
[3] = biological target: SARS-CoV-2 Delta variant S protein expressed on HEK293 cells (SARS-CoV-2) (UniProt P0DTC2)
[4] = biological target: SARS-CoV-2 Delta Plus variant S protein expressed on HEK293 cells (SARS-CoV-2) (UniProt P0DTC2)
[5] = biological target: SARS-CoV-2 Delta variant S protein expressed on HEK293 cells (SARS-CoV-2) (UniProt P0DTC2); remark: listed apart in the source
[6] = biological target: SARS-CoV-2 variant spike protein del 69-79 plus N501Y and D614G on HEK293 cells (SARS-CoV-2) (UniProt P0DTC2)
[7] = biological target: SARS-CoV-2 variant spike protein del 69-79 plus N439K on HEK293 cells (SARS-CoV-2) (UniProt P0DTC2); remark: listed apart in the source

Substance: S1D7270LALA antibody (STI-2020)
- EC50 (read off the curve) [1]: 0.09 µg/mL
- EC50 (read off the curve) [2]: 0.07 µg/mL
- EC50 [3]: 0.105 µg/mL
- EC50 [4]: 0.187 µg/mL
- EC50 [5]: 0.106 µg/mL
- EC50 [6]: 172 µg/mL
- EC50 [7]: 70 µg/mL
